Biological target: T1, CSA-DDB1 (human, UniProt Q13216 1-396; Q16531 1-1140)
T1 construct: CSA, human, full-length coding gene; pAC8-CSA-Strep II clone; DDB1, human, full-length coding gene, synthesized and codon-optimized for insect cells; also called CSA/DDB1 complex; CSA-DDB1 alone; source: Sf9, co-expressed (biGBac), purified (Nickel-chelating sepharose, Resource Q, Superdex 200)
Experiment: nano-differential scanning fluorimetry; complexes at 2 µM in 20 mM HEPES pH 7.5, 150 mM NaCl, 5% glycerol, 0.5 mM TCEP; Prometheus NT.48, 350/330 nm ratio, 1 °C/min from 20 to 90 °C; compared with CSA-DDB1 alone
Settings: both partners purified

T1 sequence (Q13216 whole entry, chain 1 of 2): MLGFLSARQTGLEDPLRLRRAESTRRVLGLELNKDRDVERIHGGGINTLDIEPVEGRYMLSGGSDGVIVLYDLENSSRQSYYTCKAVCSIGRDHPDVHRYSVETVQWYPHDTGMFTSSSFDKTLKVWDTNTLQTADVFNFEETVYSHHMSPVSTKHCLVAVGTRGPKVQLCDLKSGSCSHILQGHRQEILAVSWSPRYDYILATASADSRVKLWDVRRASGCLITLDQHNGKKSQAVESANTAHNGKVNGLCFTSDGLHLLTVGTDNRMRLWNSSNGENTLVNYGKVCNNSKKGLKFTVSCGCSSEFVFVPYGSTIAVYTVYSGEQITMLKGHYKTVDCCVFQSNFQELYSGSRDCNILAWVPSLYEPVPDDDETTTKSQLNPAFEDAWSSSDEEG
T1 sequence (Q16531 whole entry, chain 2 of 2): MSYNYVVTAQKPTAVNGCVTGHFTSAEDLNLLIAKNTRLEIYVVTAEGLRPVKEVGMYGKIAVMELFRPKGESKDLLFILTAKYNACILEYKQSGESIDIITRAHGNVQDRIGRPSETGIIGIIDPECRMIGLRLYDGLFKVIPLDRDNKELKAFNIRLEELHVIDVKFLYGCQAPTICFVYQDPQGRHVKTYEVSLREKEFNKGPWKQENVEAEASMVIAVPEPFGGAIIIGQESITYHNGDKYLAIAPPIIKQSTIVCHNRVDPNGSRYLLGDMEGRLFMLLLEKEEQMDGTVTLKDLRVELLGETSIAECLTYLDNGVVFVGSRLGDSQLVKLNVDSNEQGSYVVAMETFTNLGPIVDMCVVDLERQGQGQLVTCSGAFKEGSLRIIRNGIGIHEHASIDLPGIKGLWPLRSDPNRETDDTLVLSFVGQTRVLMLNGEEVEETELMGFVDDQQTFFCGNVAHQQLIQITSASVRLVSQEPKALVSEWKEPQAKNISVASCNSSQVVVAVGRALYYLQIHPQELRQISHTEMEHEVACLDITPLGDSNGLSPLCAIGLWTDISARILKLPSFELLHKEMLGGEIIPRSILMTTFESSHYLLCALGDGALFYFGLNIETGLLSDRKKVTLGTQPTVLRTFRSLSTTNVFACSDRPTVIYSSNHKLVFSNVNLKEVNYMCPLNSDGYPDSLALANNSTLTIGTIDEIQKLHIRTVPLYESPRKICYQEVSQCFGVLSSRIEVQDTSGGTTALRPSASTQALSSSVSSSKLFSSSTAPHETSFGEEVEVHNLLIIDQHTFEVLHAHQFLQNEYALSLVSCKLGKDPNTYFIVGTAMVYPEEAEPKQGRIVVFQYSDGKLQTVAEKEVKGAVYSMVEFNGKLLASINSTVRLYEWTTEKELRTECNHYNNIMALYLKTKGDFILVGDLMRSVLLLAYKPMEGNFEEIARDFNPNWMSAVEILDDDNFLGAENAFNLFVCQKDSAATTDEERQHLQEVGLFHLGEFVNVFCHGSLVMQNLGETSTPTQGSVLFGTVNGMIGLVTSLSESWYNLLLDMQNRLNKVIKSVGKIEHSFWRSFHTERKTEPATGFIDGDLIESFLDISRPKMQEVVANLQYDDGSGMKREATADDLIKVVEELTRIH

B1: DDA1^1-52 (domain or fragment)
chain: not shown
notes: DDA1, human, residues 1-52; Used as the complex CSA-DDB1-DDA1^1-52; also called DDA1 C-terminal truncation; DDA1Δ
binding result: binds
